Experiments:
[1] = molecular target: T1, SARS-CoV spike peptide #154 (PELDSFKEELDKYFKNH) (SARS-CoV); experiment: far-Western, overlay or dot blot
T1 chain: PELDSFKEELDKYFKNH

[2] = molecular target: T2, SARS-CoV-2 spike S2 subunit (SARS-CoV-2 (WA-1 / Wuhan-Hu-1), UniProt P0DTC2); experiment: far-Western, overlay or dot blot
[3] = molecular target: SARS-CoV-2 S-dTM (soluble spike protein residues 1-1,206 of wild-type WA-1 strain) (SARS-CoV-2 WA-1, UniProt P0DTC2); experiment: ELISA
[4] = molecular target: hCoV-OC43 S2P (pre-fusion-stabilized soluble spike) (hCoV-OC43 (AAT84354.1, cross-referenced …, UniProt P36334, stabilised)); experiment: ELISA
[5] = molecular target: hCoV-HKU1 S2P (pre-fusion-stabilized soluble spike) (hCoV-HKU1 isolate N1, UniProt Q5MQD0, stabilised); experiment: ELISA
[6] = molecular target: SARS-CoV full-length spike (Urbani) (SARS-CoV Urbani, UniProt P59594); experiment: flow cytometry on cells
[7] = molecular target: MERS-CoV full-length spike (EMC) (MERS-CoV EMC/2012 (GenBank AFS88936), UniProt K0BRG7); experiment: flow cytometry on cells
[8] = molecular target: SARS-CoV-2 full-length spike (WA-1) (SARS-CoV-2 WA-1 (GenBank QHD43416.1), UniProt P0DTC2); experiment: flow cytometry on cells
[9] = molecular target: hCoV-OC43 full-length spike (hCoV-OC43 (AAT84354.1, cross-referenced …, UniProt P36334)); experiment: flow cytometry on cells
[10] = molecular target: hCoV-HKU1 full-length spike (hCoV-HKU1 isolate N1, UniProt Q5MQD0); experiment: flow cytometry on cells
[11] = molecular target: T2, SARS-CoV-2 spike S2 subunit; experiment: negative-stain electron microscopy

Measured: binding result

B1: WS6 (monoclonal antibody, IgG) (antibody, V domains shown)
VH: EVQFQQSGTVLARPGASVKMSCKASGYTFTNYWIHWVKQRPGQGLEYIGGTYPGNGDTTYNQKFKGKAKVTAVTPTSTAYMDLSSLTNEDSAVYYCTRTGSYFDYWGQGTTLTVSS
VL: QIVLTQSPAIMSASPGEKVTISCSATSSVSYIYWYQQRPGSSPKPWIYRTSNLASGVPVRFSGSGSGTSYSLTISNMEAEDAATYYCQQYQSYPPTFGAGTKLELK
binds: [1] | [2] | [3] | [4] | [5] | [6] | [7] | [8] | [9] | [10]

B2: WS6 Fab (antigen-binding fragment of WS6) (Fab, V domains shown)
VH: EVQFQQSGTVLARPGASVKMSCKASGYTFTNYWIHWVKQRPGQGLEYIGGTYPGNGDTTYNQKFKGKAKVTAVTPTSTAYMDLSSLTNEDSAVYYCTRTGSYFDYWGQGTTLTVSS
VL: QIVLTQSPAIMSASPGEKVTISCSATSSVSYIYWYQQRPGSSPKPWIYRTSNLASGVPVRFSGSGSGTSYSLTISNMEAEDAATYYCQQYQSYPPTFGAGTKLELK
binds: [11]
